How the values were obtained:
A2780 sublines = experiment: Tumor growth in xenograft mouse model; assay type: in vivo, Athymic nu/nu mice; conditions: subcutaneous A2780 sublines; DOX 2 mg/ml in drinking water from inoculation or 12 days after; FIG. 3
Text: siRNA technology was .used to knock down the expression of PTB in tumor cells and to examine the effects of such manipulations on cell growth and malignant properties. Three siRNA (PTBsi1, PTBsi2, and PTBsi3) sequences targeting different regions of PTB mRNA were used. A siRNA can be generated as described in PCT/US2007/007352, which is herein fully incorporated by reference. Each of PTBsi1, PTBsi2, and PTBsi3 may be generated in a cell from a shRNA, which is formed after transcription of its coding sequence. The annealing of two oligonucleotides generates a DNA fragment with protruding ends compatible with Hind III and Bgl II restriction enzyme sites respectively. The coding sequences for each siRNA were cloned individually into a lentiviral vector downstream of H1 promoter and tetO element and thus the expression of these siRNAs is under control of doxycycline (DOX) (i.e. induced by DOX). We established several stable sublines carrying these expression cassettes. […] We have also examined whether knockdown of PTB could influence ovarian tumor cell growth in xenograft mouse model. […] Invasive cells were counted under microscope with high magnification (150×). […] Tumor sizes were measured in long and short dimensions every three or four days. Tumor size was calculated with formula axb2/2, where a=long dimension and b=short dimension. […]

PTB = experiment: Gene expression profiling, Affymetrix HG-U133 plus 2 oligonucleotide arrays; assay type: cell-based; conditions: A2780/PTBsi3 cells treated with DOX
Experimental: Microarray analyses of genome-wide splicing patterns and gene expression profiling were performed in A2780/PTBsi3 cells with or without PTB knockdown. Gene expression profiling was assessed using Affymetrix HG-U133 plus 2 oligonucleotide arrays, and the splicing pattern was assessed by Jivan Biologics' splicing-sensitive microarrays. The former analysis was done three times and the latter was done twice with total RNAs isolated from separate experiments. We also examined the gene expression profile once in the control subline, A2780/LUCsi, grown with or without DOX.
However, in A2780/PTBsi3 cells treated with DOX (i.e. PTB knockdown), 52 genes were found consistently changed more than 2-fold in all three separate experiments. […] In total, we found 50 genes whose expression was regulated by PTB. […] We have validated these changes in a few of these genes (INHBE, CDC42, PTBP2 and PKP4) by real-time PCR or conventional RT-PCR.

B1: PTBsi1: siRNA targeting PTB mRNA, DOX-induced, generated in a cell from shRNA1 (SEQ ID NO: 1 and 2) (nucleic acid)
chain 1: GATCCCCAGGTGACAGCCGAAGTGCATTCAAGAGATGCACTTCGGCTGTCACCTTTTTTGGAAA
chain 2: AGCTTTTCCAAAAATGCACTTCGGCTGTCACCTTCTCTTGAAAGGTGACAGCCGAAGTGCAGGG
In the case of B1, the tumor growth (A2780 sublines) is reported as “grew slower”.

B2: PTBsi3: siRNA targeting PTB mRNA, DOX-induced, generated in a cell from shRNA3 (SEQ ID NO: 5 and 6) (nucleic acid)
chain 1: GATCCCTGACAAGAGCCGTGACTACTTCAAGAGAGTAGTCACGGCTCTTGTCATTTTTGGAAA
chain 2: AGCTTTTCCAAAAATGACAAGAGCCGTGACTACTCTCTTGAAGTAGTCACGGCTCTTGTCAGGG
With B2 the PTB downregulation (PTB; all three experiments) was “about 4 fold”, the “genes consistently changed more than 2-fold” value (PTB; three separate experiments, signal intensity cutoff 200) was 52 genes and the tumor growth (A2780 sublines) was “grew slower”.

Reference: patent publication US20100144838A1, “Methods for Identifying Modulators of Pyrimidine Tract Binding Protein” (priority 2008, published 2010)
